Measured values published in patent US20230255880A1, “IMMOBILIZED ENZYME-BASED WOUND DEBRIDEMENT” (Guild Associates Inc., priority 2022, published 2023).

Experiments:
[1] = tested on: casein; assay: pH stability and autolytic resistance, 6 hours at 37° C. in phosphate buffer; format: physicochemical; conditions: for Retained activity after 6 hours of exposure: phosphate buffer, average of 5 ± standard error
Procedure: Natural (non-immobilized) and immobilized forms of each enzyme were loaded into 10 mL of phosphate buffer solutions at pH 7.0, 6.0, and 5.0 and mixed for 6 hours at 37° C. These pH values were selected as representative of the range of pH of intact to wounded skin. The amount of natural or immobilized enzyme material that was added at the start of the test was based on its measured activity, so that all tests started with similar enzyme activities for each enzyme: 2.6 U bromelain, 21 U collagenase, and 5.4 U trypsin. Retained activity was determined by taking a sample of the test solution at a given time point and evaluating it against casein. The measured activity of the test sample was divided by the activity measured at the start of the test and is presented as the average of 5 measurements±standard error, Table 2.

[2] = Diffusion through Strat-M membranes in Franz cell (in vitro dermal compatibility); format: in vitro ADME; conditions: after 6 hours, averaged across all tests, 37° C., PBS pH 7.4
From the text: Strat-M™ membranes (EMD Millipore) were selected and for testing diffusion of the immobilized enzyme through healthy skin. Strat-M is a synthetic polymeric membrane designed to simulate the properties of human skin for transdermal diffusion. The membrane is composed of multiple polyether sulfone layers with a tightly packed surface layer to create a morphology that resembles human skin. The advantage of this material is that it provides a more predictive result, since it has less variability between samples, and is not as limited to storage conditions, safety considerations, and sample availability.
Franz cells with 5 mL receptor volumes were filled with filtered 10 mM PBS buffer at pH 7.4 and held at 37° C. Strat-M membranes were placed on the receptor, covered with 0.3 mL of buffer, and the system was allowed to equilibrate with the receptor fluid for at least 30 minutes. After equilibration 0.5 mL of solutions containing 20-100 mg/mL of natural enzyme, immobilized enzyme, or BSA as a control were added to the top of the Franz cell and the cell was covered. 0.5 mL samples were taken hourly (replacing the volume with fresh PBS buffer each time) for the first 6 hours and a final sample at 24 hours. The protein concentration in each sample was evaluated using a Bradford assay and a 660 nm protein concentration assay from Pierce. The enzyme activity of the 24-hour samples was evaluated to determine if active enzyme or just peptides had passed through the membrane.

[3] = tested on: Human keratinocytes; assay: Keratinocyte compatibility testing, resazurine-based assay; format: cell-based
Procedure: (§1) Immobilized enzyme samples were further analyzed to determine if they have a detrimental effect on healthy tissue surrounding a burn wound. Human keratinocytes and fibroblasts obtained from ATCC, were seeded at cell densities of 2×10^4 in 24 well plates 6 days prior to experiments and incubated at 37° C. under 5% CO2. On day 7 a stock solution of 100 mg/mL an immobilized enzyme or natural enzyme is prepared in either PBS or a culture medium. Cells were treated with 500 μL of the enzyme solution, at several dilutions, for up to 6 hours. At the end of the test, the enzyme solution is removed, cells were washed twice with PBS, and 500 μL of the appropriate cultivation media is added. The effect of the different concentrations of enzyme on the cells is assessed using a resazurine-based assay and life cell imaging. In this case the fluorescence signal is proportional to the amount of vital cells. All enzyme concentrations were measured in triplicate (n=3). The enzyme containing fluid removed after 6 hours of exposure to cells is evaluated using the methods described above for enzymatic activity. Data determined above is used to compensate for autolytic degradation in test samples.

[4] = tested on: Human fibroblasts; assay: Fibroblast compatibility study, resazurine-based assay; format: cell-based; conditions: all tested concentrations
Procedure: as §1

Row | Substance | Retained activity after 6 hours of exposure ([1]; pH 5, 37° C., listed as bromelain Natural) | Retained activity after 6 hours of exposure ([1]; pH 6, 37° C.) | Retained activity after 6 hours of exposure ([1]; pH 7, 37° C.) | Amount of protein passing through Strat-M membranes [2] | Highest relative signal ([3]; 40 mg/mL) | Loss of initial activity within 6 hours ([1]; all pH tested) | Retained activity after 6 hours of exposure ([1]; pH 5, 37° C.) | Relative signal (cell growth) [4] | Loss of starting activity after 6 hours ([1]; pH 7) | Relative signal ([3]; all tested concentrations)
1 | bromelain | 95.6% ± 4.9% | 36.1% ± 1.4% | 64.7% ± 3.0% | 2.08 ± 0.25 mg | 6.71 | – | – | – | – | –
2 | collagenase | – | 18.9% ± 1.3% | 13.9% ± 3.3% | 18.15 ± 0.81 mg | – | 80-90% | 12.3% ± 4.5% | ~1 | – | –
3 | trypsin | – | 46.1% ± 1.2% | 7.7% ± 5.3% | 11.93 ± 0.50 mg | – | – | 43.3% ± 1.1% | almost no change to cell growth | 92% | around 1
